{"source": "patent US10729634B2", "about": "“Sex hormone-binding globulin for use as a medicament” (FUNDACIÓ HOSPITAL UNIVERSITARI VALL D'HEBRON—INSTITUT DE …, priority 2013, dated 2020)", "key": {"[1]": {"tested_on": "human SHBG transgenic mice (shbg)", "test": "High fructose diet in human SHBG transgenic mice vs wild-type", "format": "in vivo", "conditions": "high fructose diet (76% fructose) for 8 weeks, shbg vs WT mice", "from_the_text": "For this experiment there were used C57BL/6 mice (WT, controls) and human SHBG transgenic mice (shbg) but not obese.\nSHBG transgenic mice were obtained as disclosed above and according to Jänne et al, “Human Sex-Hormone-Binding Globulin Gen Expression in Transgenic Mice”, Molecular Endocrinology—1998, Vol. No. 12 (1), pp: 123-136 (supra).\nWild-type (WT) mice and shbg mice were fed with a high fructose diet. (76% fructose) for 8 weeks. Afterwards, they were sacrificed and liver biopsies were analyzed to see total triglyceride (TG) accumulation in both animal types.\nTotal triglyceride detection was measured using a triglyceride assay kit (Cat. #K622-100 BioVision) following the manufacturer's instructions.\nAs in Example 3.4 and following the same protocol, lipogenesis was studied by determining the mRNA and protein levels of acetyl-CoA carboxylase (ACC) and fatty acid synthase (FAS). Data from this analysis are illustrated in FIG. 18, panels (C) and (D)."}, "HepG2 cells": {"tested_on": "HepG2 cells", "test": "SHBG over-expression (pCMV-SHBG) in stably transfected HepG2 cells", "format": "cell-based, human", "conditions": "SHBG over-expressed (pCMV-SHBG) vs pCMV control", "from_the_text": "In order to elucidate a possible mechanism of action of the SHBG, HepG2 cells (catalog no. HB-8065; ATCC) maintained in DMEM supplemented with 10% FBS and antibiotics) were stably transfected with a vector expressing SHBG (pCMV-SHBG). The vector pCMV-SHBG and the control (pCMV-empty) were the ones used and mentioned in several publications, being the first in Bocchinfuso W P et al. “Expression and differential glycosylation of human sex hormone-binding globulin by mammalian cell lines”, Mol Endocrinol-1991, Vol. No. 5(11)., pp. 1723-1729.\nFrom all panels in FIG. 20 it can be deduced that SHBG regulates hepatocyte lipid content by modulating ACC levels in HepG2 cells. (a) SHBG mRNA levels were determined in relation to 18S RNA in pCMV and pCMV-SHBG stably transfected HepG2 cells (FIG. 20 a). SHBG protein accumulation in the medium was measured using an ELISA in pCMV and pCMV-SHBG stably transfected HepG2 cells (FIG. 20 b). ACC mRNA levels were determined in relation to 18S mRNA in pCMV and pCMV-SHBG stably transfected HepG2 cells (FIG. 20 c). SHBG mRNA levels were determined in relation to 18S RNA in shControl and shSHBG stably transfected HepG2 cells (FIG. 20 d). SHBG protein accumulation in the medium was measured using an ELISA in shControl and shSHBG stably transfected HepG2 cells (FIG. 20 e). […]"}}}
{"molecule": "SHBG: native human protein purified from healthy human serums (included SEQ ID NO: 1); in mice and HepG2 expressed from human shbg transgene/vector (protein, listed as Homo sapiens) MESRGPLATSRLLLLLLLLLLRHTRQGWALRPVLPTQSAHDPPAVHLSNGPGQEPIAVMTFDLTKITKTSSSFEVRTWDPEGVIFYGDTNPKDDWFMLGLRDGRPEIQLHNHWAQLTVGAGPRLDDGRWHQVEVKMEGDSVLLEVDGEEVLRLRQVSGPLTSKRHPIMRIALGGLLFPASNLRLPLVPALDGCLRRDSWLDKQAEISASAPTSLRSCDVESNPGIFLPPGTQAEFNLRDIPQPHAEPWAFSLDLGLKQAAGSGHLLALGTPENPSWLSLHLQDQKVVLSSGSGPGLDLPLVLGLPLQLKLSMSRVVLSQGSKMKALALPPLGLAPLLNLWAKPQGRLFLGALPGEDSSTSFCLNGLWAQGQRLDVDQALNRSHEIWTHSCPQSPGNGTDASH", "values": [{"measurement": "fatty liver disease", "setting": "[1]", "result": "Protects Against Fatty Liver Disease"}, {"measurement": "triglyceride amount in liver", "setting": "[1]", "result": "higher in WT mice than in the transgenic ones (shbg)"}, {"measurement": "ACC expression", "setting": "HepG2 cells", "result": "the expression of ACC is reduced"}, {"measurement": "total TG content", "setting": "HepG2 cells", "result": "the total TG is reduced"}]}
